Patent publication US20120263722A1 (AbbVie / Abbott, published 2012)

Key:
[1] = molecular target: T1, CD-22 on the cell surface (human, UniProt P20273 20-847); experiment: flow cytometry on cells carrying the target, antibody or DVD-Ig at 2 ug/mL
T1 construct: whole, on cells
Procedure: (§1) Binding of monoclonal antibodies to the surface of human tumor cell fines was assessed by flow cytometry. For example, stable cell lines overexpressing a cell-surface antigen of interest or human tumor cell lines were harvested from tissue culture flasks and resuspended in phosphate buffered saline (PBS) containing 5% fetal bovine serum (PBS/FBS). Prior to staining, human tumor cells were incubated on ice with (100 μl) human IgG at 5 μg/ml in PBS/FCS. 1-5×10⁵ cells were incubated with antibody or DVD-Ig (2 μg/mL) in PBS/FBS for 30-60 minutes on ice. […] After 30 minutes incubation on ice, cells were washed twice and resuspended in PBS/PBS. Fluorescence was measured using a Becton Dickinson FACSCalibur (Becton Dickinson, San Jose, Calif.).
(§2) The geometric mean is the n root of the multiplication product of n fluorescent signals (a1×a2×a3 . . . an). With log-transformed data the geometric mean is used to normalize the weighting of the data distribution.

[2] = molecular target: T2, CD-19 on the cell surface (human, UniProt P15391 20-556); experiment: as above
T2 construct: whole, on cells
T2 sequence (looked up): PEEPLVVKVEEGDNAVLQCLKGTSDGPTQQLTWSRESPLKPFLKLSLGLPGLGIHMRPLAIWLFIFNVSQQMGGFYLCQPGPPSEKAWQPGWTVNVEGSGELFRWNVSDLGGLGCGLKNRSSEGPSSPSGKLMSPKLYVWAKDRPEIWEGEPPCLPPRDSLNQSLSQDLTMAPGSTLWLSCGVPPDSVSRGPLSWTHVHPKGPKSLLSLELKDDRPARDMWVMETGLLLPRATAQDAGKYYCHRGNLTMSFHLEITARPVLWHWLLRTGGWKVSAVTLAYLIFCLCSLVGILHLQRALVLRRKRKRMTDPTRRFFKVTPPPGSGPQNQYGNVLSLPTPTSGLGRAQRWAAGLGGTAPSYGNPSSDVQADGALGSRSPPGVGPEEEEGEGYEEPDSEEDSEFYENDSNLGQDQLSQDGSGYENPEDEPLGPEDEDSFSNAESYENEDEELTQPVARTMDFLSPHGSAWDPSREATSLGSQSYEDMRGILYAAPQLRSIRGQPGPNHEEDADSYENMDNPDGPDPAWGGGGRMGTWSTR
Procedure: as §1, §2

NRP1 on the cell surface = molecular target: T3, NRP1 on the cell surface (human, UniProt O14786 22-923); experiment: as above
T3 construct: whole, on cells; also called neuropilin 1
Procedure: as §1, §2

[3] = molecular target: T4, Recombinant Human Neuropilin-1 (human, UniProt O14786-2 22-644, limits assumed); experiment: SPR (BIACORE), N-terminal variable domain to target antigen
T4 construct: Bought reagent used in the Biacore analyses; also called NRP1; NRP-1
Procedure: The BIACORE assay (Biacore, Inc, Piscataway, N.J.) determines the affinity of antibodies or DVD-Ig with kinetic measurements of on-rate and off-rate constants. Binding of antibodies or DVD-Ig to a target antigen (for example, a purified recombinant target antigen) was determined by surface plasmon resonance-based measurements with a Biacore® 1000 or 3000 instrument (Biacore® AB. Uppsala, Sweden) using running HBS-EP (10 mM HEPES [pH 7.4], 150 mM NaCl, 3 mM EDTA, and 0.005% surfactant P20) at 25° C. All chemicals were obtained from Biacore® AB (Uppsala, Sweden) or otherwise from a different source as described in the text.
For example, approximately 5000 RU of goat anti-mouse IgG, (Fcγ), fragment specific polyclonal antibody (Pierce Biotechnology Inc, Rockford, Ill.) diluted in 10 mM sodium acetate (pH 4.5) is directly immobilized across a CMS research grade biosensor chip using a standard amine coupling kit according to manufacturer's instructions and procedures at 25 μg/ml. Unreacted moieties on the biosensor surface are blocked with ethanolamine. Modified carboxymethyl dextran surface in flowcell 2 and 4 is used as a reaction surface. Unmodified carboxymethyl dextran without goat anti-mouse. IgG in flow cell 1 and 3 is used as the reference surface. For kinetic analysis, rate equations derived from the 1:1 Langmuir binding model are fitted simultaneously to association and dissociation phases of all eight injections (using global fit analysis) with the use of Biaevaluation 4.0.1 software. Purified antibodies or DVD-Ig are diluted in HEPES-buffered saline for capture across goat anti-mouse IgG specific reaction surfaces. Antibodies or DVD-Ig, to be captured as a ligand (25 μg/ml) are injected over reaction matrices at a flow rate of 5 μl/min. The association and dissociation rate constants, kₒₙ(M⁻¹s⁻¹) and koff (s⁻¹) are determined under a continuous flow rate of 25 μl/min. Rate constants are derived by making kinetic binding measurements at different antigen concentrations ranging from 10-200 nM. The equilibrium dissociation constant (M) of the reaction between antibodies or DVD-Igs and the target antigen is then calculated from the kinetic rate constants by the following formula: KD=koff/Kₒₙ. Binding is recorded as a function of time and kinetic rate constants are calculated.

[4] = molecular target: T5, CD-80 on the cell surface (human, UniProt P33681 35-288); experiment: flow cytometry on cells carrying the target, antibody or DVD-Ig at 2 ug/mL
T5 construct: whole, on cells
T5 sequence (looked up): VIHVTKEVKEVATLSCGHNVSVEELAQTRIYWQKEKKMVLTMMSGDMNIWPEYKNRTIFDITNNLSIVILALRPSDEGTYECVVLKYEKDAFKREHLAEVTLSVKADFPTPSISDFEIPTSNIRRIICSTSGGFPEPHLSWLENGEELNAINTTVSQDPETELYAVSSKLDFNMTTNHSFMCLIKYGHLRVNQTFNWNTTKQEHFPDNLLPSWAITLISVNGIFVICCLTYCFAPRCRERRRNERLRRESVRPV
Procedure: as §1, §2

B1: AB008 (antibody, V domains shown)
VH: QVQLVQSGAEVKKPGSSVKVSCKASGYTFTSYWLHWVRQAPGQGLEWIGYINPRNDYTEYNQNFKDKATITADESTNTAYMELSSLRSEDTAFYFCARRDITTFYWGQGTTVTVSS
VL: DIQLTQSPSSLSASVGDRVTMSCKSSQSVLYSANHKNYLAWYQQKPGKAPKLLIYWASTRESGVPSRFSGSGSGTDFTFTISSLQPEDIATYYCHQYLSSWTFGGGTKLEIKR
notes: Parent antibody; also called AB008VH; AB008VL
N-Terminal VD GEO MEAN (FACS geometric mean) [1]: 256

B2: AB006 (antibody, V domains shown)
VH: QVQLQQSGAELVRPGSSVKISCKASGYAFSSYWMNWVKQRPGQGLEWIGQIWPGDGDTNYNGKFKGKATLTADESSSTAYMQLSSLASEDSAVYFCARRETTTVGRYYYAMDYWGQGTSVTVSS
VL: DILLTQTPASLAVSLGQRATISCKASQSVDYDGDSYLNWYQQIPGQPPKLLIYDASNLVSGIPPRFSGSGSGTDFTLNIHPVEKVDAATYHCQQSTEDPWTFGGGTKLEIKR
notes: Parent antibody; also called AB006VH; AB006VL
N-Terminal VD GEO MEAN (FACS geometric mean) [2]: 1570

B3: AB016 (antibody, V domains shown)
VH: EVQLVESGGGLVQPGGSLRLSCAASGFSFSSEPISWVRQAPGKGLEWVSSITGKNGYTYYADSVKGRFTISADTSKNTAYLQMNSLRAEDTAVYYCARWGKKVYGMDVWGQGTLVTVSS
VL: DIQMTQSPSSLSASVGDRVTITCRASQSISSYLAWYQQKPGKAPKLLIYGASSRASGVPSRFSGSGSGTDFTLTISSLQPEDFATYYCQQYMSVPITFGQGTKVEIKR
notes: Parent antibody; also called AB016VH; AB016VL
N-Terminal VD GEO MEAN (FACS geometric mean) (NRP1 on the cell surface): 15.4

B4: DVD1879 (bispecific antibody, human IgG1, kappa)
heavy: not shown
light: DILLTQTPASLAVSLGQRATISCKASQSVDYDGDSYLNWYQQIPGQPPKLLIYDASNLVSGIPPRFSGSGSGTDFTLNIHPVEKVDAATYHCQQSTEDPWTFGGGTKLEIKRTVAAPQIVLIQSPAIMSASPGEKVTMTCSASSSVSYMYWYQQKPGSSPRLLIYDTSNLASGVPVRFSGSGSGTSYSLTISRMEAEDAATYYCQQWSGYPYTFGGGTKLEIKRTVAAPSVFIFPPSDEQLKSGTASVVCLLNNFYPREAKVQWKVDNALQSGNSQESVTEQDSKDSTYSLSSTLTLSKADYEKHKVYACEVTHQGLSSPVTKSFNRGEC
notes: Outer domain anti-CD19 (AB006), inner domain anti-IL-6 (AB040); also called DVD1879H; DVD1879L
N-Terminal VD GEO MEAN (FACS geometric mean) [2]: 1930

B5: DVD1883 (bispecific antibody, human IgG1, kappa)
heavy: not shown
light: DIQLTQSPSSLSASVGDRVTMSCKSSQSVLYSANHKNYLAWYQQKPGKAPKLLIYWASTRESGVPSRFSGSGSGTDFTFTISSLQPEDIATYYCHQYLSSWTFGGGTKLEIKRTVAAPQIVLIQSPAIMSASPGEKVTMTCSASSSVSYMYWYQQKPGSSPRLLIYDTSNLASGVPVRFSGSGSGTSYSLTISRMEAEDAATYYCQQWSGYPYTFGGGTKLEIKRTVAAPSVFIFPPSDEQLKSGTASVVCLLNNFYPREAKVQWKVDNALQSGNSQESVTEQDSKDSTYSLSSTLTLSKADYEKHKVYACEVTHQGLSSPVTKSFNRGEC
notes: Outer domain anti-CD22 (AB008), inner domain anti-IL-6 (AB040); also called DVD1883H; DVD1883L
N-Terminal VD GEO MEAN (FACS geometric mean) [1]: 223

B6: DVD1889 (bispecific antibody, human IgG1, kappa)
heavy: not shown
light: DIQMTQSPSSLSASVGDRVTITCRASQSISSYLAWYQQKPGKAPKLLIYGASSRASGVPSRFSGSGSGTDFTLTISSLQPEDFATYYCQQYMSVPITFGQGTKVEIKRTVAAPQIVLIQSPAIMSASPGEKVTMTCSASSSVSYMYWYQQKPGSSPRLLIYDTSNLASGVPVRFSGSGSGTSYSLTISRMEAEDAATYYCQQWSGYPYTFGGGTKLEIKRTVAAPSVFIFPPSDEQLKSGTASVVCLLNNFYPREAKVQWKVDNALQSGNSQESVTEQDSKDSTYSLSSTLTLSKADYEKHKVYACEVTHQGLSSPVTKSFNRGEC
notes: also called DVD1889H; DVD1889L
N-Terminal VD GEO MEAN (FACS geometric mean) (NRP1 on the cell surface): 15
Kd [3]: 0.5 nM
koff [3]: 0.00019 s⁻¹
kon [3]: 380000 M⁻¹ s⁻¹

B7: DVD1881 (bispecific antibody, human IgG1, kappa)
heavy: not shown
light: ESALTQPPSVSGAPGQKVTISCTGSTSNIGGYDLHWYQQLPGTAPKLLIYDINKRPSGISDRFSGSKSGTAASLAITGLQTEDEADYYCQSYDSSLNAQVFGGGTRLTVLGQPKAAPQIVLIQSPAIMSASPGEKVTMTCSASSSVSYMYWYQQKPGSSPRLLIYDTSNLASGVPVRFSGSGSGTSYSLTISRMEAEDAATYYCQQWSGYPYTFGGGTKLEIKRTVAAPSVFIFPPSDEQLKSGTASVVCLLNNFYPREAKVQWKVDNALQSGNSQESVTEQDSKDSTYSLSSTLTLSKADYEKHKVYACEVTHQGLSSPVTKSFNRGEC
notes: Outer domain anti-CD80 (AB007), inner domain anti-IL-6 (AB040); also called DVD1881H; DVD1881L
N-Terminal VD GEO MEAN (FACS geometric mean) [4]: 134

B8: AB007 (antibody, V domains shown)
VH: QVQLQESGPGLVKPSETLSLTCAVSGGSISGGYGWGWIRQPPGKGLEWIGSFYSSSGNTYYNPSLKSQVTISTDTSKNQFSLKLNSMTAADTAVYYCVRDRLFSVVGMVYNNWFDVWGPGVLVTVSS
VL: ESALTQPPSVSGAPGQKVTISCTGSTSNIGGYDLHWYQQLPGTAPKLLIYDINKRPSGISDRFSGSKSGTAASLAITGLQTEDEADYYCQSYDSSLNAQVFGGGTRLTVLG
notes: Parent antibody; also called AB007VH; AB007VL
N-Terminal VD GEO MEAN (FACS geometric mean) [4]: 82.5
